Test results taken from patent US20240241109A1 (NATIONAL JEWISH HEALTH, published 2024).
Like-named read-outs stand apart in the source and are kept apart here.

Assays:
[1] = molecular target: T1, wildtype SARS-COV-2 spike receptor binding domain (RBD) (SARS-COV-2 (wildtype), UniProt P0DTC2 320-541); assay: SPR (Biacore)
[2] = molecular target: T1, wildtype SARS-COV-2 spike receptor …

B1: Etesevimab (LY-CoV016) (antibody, V domains shown)
VH: EVQLVESGGGLVQPGGSLRLSCAASGFTVSSNYMSWVRQAPGKGLEWVSVIYSGGSTFYADSVKGRFTISRDNSMNTLFLQMNSLRAEDTAVYYCARVLPMYGDYLDYWGQGTLVTVSS
VL: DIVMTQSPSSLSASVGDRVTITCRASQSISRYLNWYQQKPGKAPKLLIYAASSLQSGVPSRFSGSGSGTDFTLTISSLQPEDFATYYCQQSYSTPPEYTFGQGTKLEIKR
Kd [1]: 6.8 nM | Kd [2]: 6.83 nM | koff [2]: 0.00988 s⁻¹ | kon [2]: 1.46e+06 M⁻¹ s⁻¹
